In patent US20250122266A1, “SMART SINGLE-DOMAIN INTRABODIES WITH PRECISION SWITCHES FOR BIOMEDICAL APPLICATIONS” (THE TEXAS A&M UNIVERSITY SYSTEM, priority 2020, published 2025):
One block for each molecule: values may come before it.

What was measured:
[1] = system: mCherry (NE-tethered mCh-lamin A); experiment: NP-to-NE translocation assay of sunbody variants; type: cell-based; settings: HeLa cells, GFP-tagged LaM8-LOV2 constructs, after photostimulation
Protocol: (§1) To monitor light-induced F-body: antigen association or dissociation, HeLa cells seeded on glass-bottom dishes were co-transfected with the indicated plasmids shown in the figures. Confocal images were acquired 24-48 hours after transfection. The cells were imaged every 4 sec for 2 nmin unless otherwise noted. The 488-nm laser source to excite GFP was also used for photostimulation (with 1-5% output). To quantify fluorescent signals at selected areas, we used the region-of-interest (ROI) toolbox in Nikon NIS-Elements software to define the nuclear envelope (NE) or nucleoplasm (NP) regions. The “Time Measurement” tool was used to determine the mCherry intensities for moonbody variants and GFP intensities for sunbody variants. The fluorescence intensity ratio (FNE/FNP) was used as readout, with the changes in the ratio plotted as F/F0 or ΔF/F0. For spatially-restricted photostimulation, the FRAP module in the Nikon imaging system was used, with the 488-nm laser power output set at 0.2%-5%.
The instant example screens photo-switchable nanobodies using a similar engineering approach and the NE translocation assay (see FIGS. 20A-20B). For this example, an mCherry-specific nanobody (LaM8) was used and LOV2 was inserted into flexible loop regions opposing the CDRs (see FIG. 20B and FIG. 21A), the latter of which are involved in direct antigen recognition and thus remain unperturbed.

[2] = system: SH2-mEmerald; experiment: moonbody regulated protein degradation; type: cell-based; settings: moonbody fused with AFB2, escalating doses of pulsed light
Protocol: The plasmid encoding the moonbody fused with the F-box protein atAFB2 was co-transfected with SH2-mEmerald into HeLa cells. Cells were treated with or without a customized blue light source (470 nm, 40 μW/mm2) after 16 h transfection. Light stimulation was applied for 10% (1 min ON, 9 min OFF), 30% (3 min ON, 7 min OFF), or 50% (5 min ON, 5 min OFF). After an additional 16 hours, cells were imaged and SH2-mEmerald mean intensity were measured. Moonbody without atAFB2 was used as control.
It was then evaluated if moonbody could be utilized to conditionally fine-tune the expression levels of its binding target. The SH2-specific moonbody was fused with the auxin signalling F-box 2 protein (AFB2), a component in the Skp1-Cu1-F-Box (SCF) E3 ubiquitin ligase complex that can recruit auxin-inducible degrons for proteasomal degradation. Monobody can directly recognize its target, thus obviating the need for auxin and the fusion of the degron tag to a target protein.

[3] = system: SH2 domain of Abl (NE-SH2); experiment: nuclear envelope (NE) translocation assay of moonbody variants; type: cell-based
Protocol: as §1
The instant example provides a light-controllable monobody by inserting the LOV2 photoswitch into a fibronectin type III domain (FN3) scaffold that specifically recognizes the Src Homology 2 (SH2) domain of Abelson tyrosine kinase (Abl). […]

[4] = HeLa cells
[5] = aqueous solutions, purified protein; read-out: dissociation constant (Kd); cited from earlier work

B1: sunbody: anti-mCherry nanobody LaM8 with LOV2 at N-terminus (S0) and S3 loop, SEQ ID NO: 2 (protein)
chain: LATTLERIEKNFVITDPRLPDNPIIFASDSFLQLTEYSREEILGRNCRFLQGPETDRATVRKIRDAIDNQTEVTVQLINYTKSGKKFWNLFHLQPMRDQKGDVQYFIGVQLDGTEHVRDAAEREGVMLIKKTAENIDEAAKELKLMAQVQLVESGGGLVQAGGSLRLSCAVSGRPFSEYNLGWFRQAPGKEREFVARIRSSGTTVYTDSVKGRFSASRDNALERIEKNFVITDPRLPDNPIIFASDSFLQLTEYSREEILGRNCRFLQGPETDRATVRKIRDAIDNQTEVTVQLINYTKSGKKFWNLFHLQPMRDQKGDVQYFIGVQLDGTEHVRDAAEREGVMLIKKTAENIDEAAKNMGYLQLNSLEPEDTAVYYCAMSRVDTDSPAFYDYWGQGTQVTVSTPRS
light-induced change in the NE/NP ratio [1]: over 80%

B2: moonbody: anti-SH2 Abl monobody with LOV2 inserted at site S5 (optimized), SEQ ID NO: 1 (protein)
chain: VSSVPTKLEVVDATPTSLKISWDAYYSSWQNVKYYRITYGETGGDSPVQEFTVPGYYSTATISGLKPGSGLATTLERIEKNFVITDPRLPDNPIIFASDSFLQLTEYSREEILGRNCRFLQGPETDRATVRKIRDAIDNQTEVTVQLINYTKSGKKFWNLFHLQPMRDQKGDVQYFIGVQLDGTEHVRDAAEREGVMLIKKTAENIDEAAKELGVDYTITVYAYDTFFPGYEPNSPISINYRT
target protein level under pulsed light [2]: gradual recovery of SH2-mEmerald signals
light-dependent moonbody-target interaction ([3]; HeLa cells, NE/NP ratio of mCh signals): almost complete dissociation from NE
repeated NE-to-NP translocation, number of dark-light cycles ([3]; reversibility): at least 10 dark-light cycles

EC50 (caffeine sensitivity), result in words ([4]; PB-tagged variants, caffeine titration): Intramolecular binding
B3: biCOSMO-L: two COSMO copies connected by longer mixed flexible and rigid linker, SEQ ID NO: 7 (protein)
chain: EVQLQASGGGLVQAGGSLRLSCTASGRTGTIYSMAWFRQAPGKEREFLATVGWSSGITYYMDSVKGRFTISRDNAKNSAYLQMNSLKPEDTAVYYCTATRAWSVGYDYWGQGTQVTVSHAAAGAPVPYPDPLEPREQKLISEEDLGGSGGAPEVQLQASGGGLVQAGGSLRLSCTASGRTGTIYSMAWFRQAPGKEREFLATVGWSSGITYYMDSVKGRFTISRDNAKNSAYLQMNSLKPEDTAVYYCTATRAWSVGYDYWGQGTQVTVS
caffeine-inducible PM translocation ([4]; 200 or 1000 nM caffeine): caffeine-induced PM translocation was no longer observed

B4: WT: wild-type anti-caffeine single variable domain on a heavy chain (acVHH), tested as PB-tagged YFP fusion (protein)
VHH: QLVESGGGLVQAGGSLRLSCAVSGRPFSEYNLGWFRQAPGKEREFVARIRSSGTTVYTDSVKGRFSASRDNATCVVHYTGMLEDGKKFDSSRDRNKPFKFMLGKQEVIRGWEEGVAQMSVGQRAKLTISPDYAYGATGHGSGSGSGVKDLLQAWDLYYHVFRRISGPPGPGSGLWHEMWHEGLEEASRLYFGERNVKGMFEVLEPLHAMMERGPQTLKETSFNQAYGRDLMEAQEWCRKYMKSGSSGGSGSGIIPPHATLVFDVELLKLEKNMGYLQLNSLEPEDTAVYYCAMSRVDTDSPAFYDYWGQGTQVTVSTPRS
Kd [5]: 500 nM
